In US20090148436A1 (Pfizer, published 2009):

Key:
[1] = biological target: T1, mature human GDF8 (growth and differentiation factor-8, myostatin) (human, UniProt O14793 267-375); assay: cell-based or functional assay
[2] = biological target: T1, mature human GDF8 (growth and …); assay: SPR (BIAcore 2000), biotinylated GDF-8 on streptavidin chip, antibody 2.3-300 nM in solution
[3] = biological target: T2, mature BMP11 (human, UniProt O95390 299-407); assay: ELISA: antibody titrated on biotinylated BMP11 held on a streptavidin plate (title SA/BIO BMP11 ELISA), OD 450 nm
T2 construct: mature; it is not certain that 'human' covers BMP11; It was biotinylated in the ELISA; also called biotinylated BMP11
T2 sequence (O95390 299-407): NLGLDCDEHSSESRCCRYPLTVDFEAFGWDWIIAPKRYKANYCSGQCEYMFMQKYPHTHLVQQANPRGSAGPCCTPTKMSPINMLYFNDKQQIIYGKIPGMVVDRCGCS

[4] = biological target: T1, mature human GDF8 (growth and …); assay: ELISA: antibody titrated on biotinylated GDF8 held on a streptavidin plate (title SA/BIO GDF8 BINDING ELISA), OD 450 nm
[5] = biological target: T1, mature human GDF8 (growth and …); assay: sandwich ELISA: RK22 coated, GDF-8 titrated, biotinylated RK35 as detector, in THST; the concentration is that of GDF-8
[6] = biological target: T1, mature human GDF8 (growth and …); assay: BIAcore 2000, RK22 over biotinylated GDF-8 on Sensor Chip SA; Langmuir model (global analysis), row Average of three independent experiments
[7] = biological target: T1, mature human GDF8 (growth and …); assay: BIAcore 2000, RK22 over biotinylated GDF-8 on Sensor Chip SA; Bivalent model (global analysis), ka1/kd1, row Average of three independent experiments
[8] = biological target: T1, mature human GDF8 (growth and …); assay: BIAcore 2000, RK22 (lot PK1901, activity 82.54 %) over biotinylated GDF-8 on Sensor Chip SA; 71 RU (2.6.03), Langmuir model (global analysis), Rmax 44.00, Chi2 7.47
[9] = biological target: T1, mature human GDF8 (growth and …); assay: BIAcore 2000, RK22 (lot PK1901, activity 82.54 %) over biotinylated GDF-8 on Sensor Chip SA; 45 RU (4.30.03), Langmuir model (global analysis), Rmax 84.00, Chi2 2.12
[10] = biological target: T1, mature human GDF8 (growth and …); assay: BIAcore 2000, RK22 (lot PK1901, activity 82.54 %) over biotinylated GDF-8 on Sensor Chip SA; 42.4 RU (6.14.03), Langmuir model (global analysis), Rmax 39.4, Chi2 3.67
[11] = biological target: T1, mature human GDF8 (growth and …); assay: BIAcore 2000, RK22 (lot PK1901, activity 82.54 %) over biotinylated GDF-8 on Sensor Chip SA; 71 RU (2.6.03), Bivalent model (global analysis), ka1/kd1, Rmax 53.00, Chi2 0.84
[12] = biological target: T1, mature human GDF8 (growth and …); assay: BIAcore 2000, RK22 (lot PK1901, activity 82.54 %) over biotinylated GDF-8 on Sensor Chip SA; 45 RU (4.30.03), Bivalent model (global analysis), ka1/kd1, Rmax 84.00, Chi2 1.29
[13] = biological target: T1, mature human GDF8 (growth and …); assay: BIAcore 2000, RK22 (lot PK1901, activity 82.54 %) over biotinylated GDF-8 on Sensor Chip SA; 42.4 RU (6.14.03), Bivalent model (global analysis), ka1/kd1, Rmax 49.2, Chi2 0.299
[14] = biological target: T1, mature human GDF8 (growth and …); assay: inhibition of the binding of biotinylated GDF8 (20 ng/ml), preincubated with the titrated protein, to plate-coated ActRIIB-Fc; axis OD 450 nm
[15] = biological target: T1, mature human GDF8 (growth and …); assay: soluble ActRIIB as competitor: inhibition of the binding of biotinylated GDF8 (20 ng/ml) to plate-coated ActRIIB-Fc; axis OD 450 nm

B1: RK22 murine monoclonal anti-GDF8 antibody (antibody, V domains shown)
VH: QVQLQQSGAELARPGASVKLSCKASGYTFTSYWMQWVKQRPGQGLEWIGAIYPGDGDTRYTQKFKGKATLTADKSSSTAYMQLSSLASEDSAVYYCARMGGYDRYYFDYWGQGTTLTVSS
VL: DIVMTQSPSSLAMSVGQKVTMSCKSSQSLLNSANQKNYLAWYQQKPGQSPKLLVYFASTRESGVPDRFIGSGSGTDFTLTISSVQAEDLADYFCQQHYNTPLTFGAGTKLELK
notes: Mouse monoclonal from a hybridoma (GDF8 knockout mice); It was biotinylated when used as the ELISA detector; also called RK22 antibody; biotinylated RK22
Which “IC50, pGL3(CAGA)12 luciferase reporter in A204 cells treated with 10 ng/ml GDF8” value [1] does the source give for B1 here?
Its value is 0.4 nM.

What about the Kd [2] of the same binder?
The Kd was 7 nM.

And the EC50 [3]?
Its EC50 is 61.2 µg/mL.

What about the EC50 [4] of the same binder?
Its EC50 is 0.193 µg/mL.

And the “EC50 (read off the curve)” value [5]?
The value was ~0.0003 µg/mL.

And the Ka [6]?
The Ka was 2.18e+08 M⁻¹.

What about the Kd [6] of the same binder?
The Kd was 6.89 nM.

And the koff [6]?
The koff was 0.000562 s⁻¹.

What about the kon [6] of the same binder?
Its kon is 116000 M⁻¹ s⁻¹.

What about the Ka [7] of the same binder?
The Ka was 8.44e+07 M⁻¹.

And the Kd [7]?
Its Kd is 15.2 nM.

And the koff [7]?
The koff was 0.000708 s⁻¹.

What about the kon [7] of the same binder?
Its kon is 61600 M⁻¹ s⁻¹.

What about the Ka [8] of the same binder?
The Ka was 2.58e+08 M⁻¹.

What about the Kd [8] of the same binder?
The Kd was 3.88 nM.

What about the koff [8] of the same binder?
The koff was 0.000572 s⁻¹.

What about the kon [8] of the same binder?
The kon was 147000 M⁻¹ s⁻¹.

What about the Ka [9] of the same binder?
Its Ka is 7.28e+07 M⁻¹.

What about the Kd [9] of the same binder?
The Kd was 13.7 nM.

What about the koff [9] of the same binder?
Its koff is 0.000633 s⁻¹.

And the kon [9]?
The kon was 46100 M⁻¹ s⁻¹.

And the Ka [10]?
The Ka was 3.24e+08 M⁻¹.

And the Kd [10]?
Its Kd is 3.09 nM.

And the koff [10]?
The koff was 0.000482 s⁻¹.

And the kon [10]?
Its kon is 156000 M⁻¹ s⁻¹.

And the Ka [11]?
The Ka was 1.07e+08 M⁻¹.

And the Kd [11]?
The Kd was 9.33 nM.

What about the koff [11] of the same binder?
Its koff is 0.00078 s⁻¹.

What about the kon [11] of the same binder?
The kon was 83600 M⁻¹ s⁻¹.

And the Ka [12]?
The Ka was 3.67e+07 M⁻¹.

What about the Kd [12] of the same binder?
The Kd was 27.3 nM.

And the koff [12]?
The koff was 0.00063 s⁻¹.

What about the kon [12] of the same binder?
Its kon is 23100 M⁻¹ s⁻¹.

And the Ka [13]?
Its Ka is 1.09e+08 M⁻¹.

And the Kd [13]?
Its Kd is 9.14 nM.

And the koff [13]?
Its koff is 0.000714 s⁻¹.

What about the kon [13] of the same binder?
Its kon is 78100 M⁻¹ s⁻¹.

B2: MYO-029 human IgG1 anti-GDF-8 antibody (antibody, V domains shown)
VH: QVQLVQSGAEVKKPGASVKVSCKASGYTFTSYYMHWVRQAPGQGLEWMGIINPSGGSTSYAQKFQGRVTMTRDTSTSTVYMELSSLRSEDTAVYYCARDENWGFDPWGQGTLVTVSS
VL: SYELTQPPSVSVSPGQTATITCSGHALGDKFVSWYQQGSGQSPVLVIYDDTQRPSGIPGRFSGSNSGNTATLTISGTQAMDEADYFCQAWDSSFVFGGGTKVTVL
Which “IC50 (read off the curve)” value [14] does the source give for B2 here?
Its value is ~0.3 nM.

B3: Recombinant ActRIIB-Fc chimera (R&D Systems, Cat. No. 339-RB/CF) (Fc fusion)
chain: SGRGEAETRECIYYNANWELERTNQSGLERCEGEQDKRLHCYASWRNSSGTIELVKKGCWLDDFNCYDRQECVATEENPQVYFCCCEGNFCNERFTHLPEAGGPEVTYEPPPTAPT
notes: Bought construct; also called ActRIIB fusion protein; ActIIRB; Fc part of the bought chimera not given
Which “IC50 (read off the curve)” value [15] does the source give for B3 here?
Its value is ~0.3 nM.
